The test has as its target T1, SARS-CoV-2 spike protein RBD-Fc fusion protein, wild type (SARS-CoV-2, UniProt P0DTC2).
T1 construct: source: bought: Sino Biological
Kind of test: ELISA. As to conditions: both partners purified. (In general: In an ELISA, binding on a coated surface is turned into a signal by an enzyme label.)

Bounds are passed on as bounds.

The values that follow come from publication PMC9181698 (International Journal of Molecular Sciences, 2022).

In general, IC50 refers to the concentration that inhibits the measured activity by half.

B1: LW25.6, individual helix 2 of LCB1 (peptide)
chain: GHAEASMRVSDLIYEFMKKG
HELM: PEPTIDE1{[O=C1N[C@H]2[C@H](CS[C@H]2CCCCC(=O)[*:2])N1].[O=C(COCCOCCN[*:1])[*:2]].G.H.A.E.A.S.M.R.V.S.D.L.I.Y.E.F.M.K.K.G.[am]}$$$$V2.0
SMILES: CC[C@H](C)[C@H](NC(=O)[C@H](CC(C)C)NC(=O)[C@H](CC(=O)O)NC(=O)[C@H](CO)NC(=O)[C@@H](NC(=O)[C@H](CCCNC(=N)N)NC(=O)[C@H](CCSC)NC(=O)[C@H](CO)NC(=O)[C@H](C)NC(=O)[C@H](CCC(=O)O)NC(=O)[C@H](C)NC(=O)[C@H](Cc1c[nH]cn1)NC(=O)CNC(=O)COCCOCCNC(=O)CCCC[C@@H]1SC[C@@H]2NC(=O)N[C@@H]21)C(C)C)C(=O)N[C@@H](Cc1ccc(O)cc1)C(=O)N[C@@H](CCC(=O)O)C(=O)N[C@@H](Cc1ccccc1)C(=O)N[C@@H](CCSC)C(=O)N[C@@H](CCCCN)C(=O)N[C@@H](CCCCN)C(=O)NCC(N)=O
notes: source: synthetic peptide (Fmoc/tBu solid-phase synthesis, preparative HPLC)
The molecule B1 showed an IC50 of more than 200 nM.

B2: LW25.5, individual helix 1 of LCB1 (peptide)
chain: DKEWILQKIYEIMRLLDEL
HELM: PEPTIDE1{[O=C1N[C@H]2[C@H](CS[C@H]2CCCCC(=O)[*:2])N1].[O=C(COCCOCCN[*:1])[*:2]].D.K.E.W.I.L.Q.K.I.Y.E.I.M.R.L.L.D.E.L.[am]}$$$$V2.0
SMILES: CC[C@H](C)[C@H](NC(=O)[C@H](Cc1c[nH]c2ccccc12)NC(=O)[C@H](CCC(=O)O)NC(=O)[C@H](CCCCN)NC(=O)[C@H](CC(=O)O)NC(=O)COCCOCCNC(=O)CCCC[C@@H]1SC[C@@H]2NC(=O)N[C@@H]21)C(=O)N[C@@H](CC(C)C)C(=O)N[C@@H](CCC(N)=O)C(=O)N[C@@H](CCCCN)C(=O)N[C@H](C(=O)N[C@@H](Cc1ccc(O)cc1)C(=O)N[C@@H](CCC(=O)O)C(=O)N[C@H](C(=O)N[C@@H](CCSC)C(=O)N[C@@H](CCCNC(=N)N)C(=O)N[C@@H](CC(C)C)C(=O)N[C@@H](CC(C)C)C(=O)N[C@@H](CC(=O)O)C(=O)N[C@@H](CCC(=O)O)C(=O)N[C@@H](CC(C)C)C(N)=O)[C@@H](C)CC)[C@@H](C)CC
notes: as for B1
B2: the IC50 was more than 200 nM.
